Laboratory results: patent US12723078 (University of Texas, dated 2026)

Columns and labels:
[1] = target: T1, LILRA2 on reporter cells (UniProt Q8N149 24-483); test: flow cytometry on LILR reporter cells, anti-rabbit IgG PE
T1 construct: whole, on cells

[2] = target: T2, LILRA1 on reporter cells (UniProt O75019 17-489, limits assumed); test: as above
T2 construct: whole, on cells

[3] = target: T3, recombinant human LILRB1 protein (human, UniProt Q8NHL6 24-461); test: Octet RED96, LILRB1 at 100, 33.3, 11.1 and 3.7 nM
T3 construct: ELISA and Octet methods say only 'recombinant LILRB1'; also called recombinant LILRB1; LILRB1 recombinant proteins

[4] = target: T4, LILRA4 (human, UniProt P59901); test: ELISA
T4 construct: not the cell-surface form of MOLECULES; also called LILRA4 protein of the ELISA and Octet specificity tests

[5] = target: T5, LILRA2 (human, UniProt Q8N149); test: ELISA
T5 construct: not the cell-surface form of MOLECULES; also called LILRA2 protein of the ELISA and Octet specificity tests

[6] = target: T6, LILRA3 (human, UniProt Q8N6C8); test: ELISA
T6 construct: not the cell-surface form of MOLECULES; also called LILRA3 protein of the ELISA and Octet specificity tests

[7] = target: T7, LILRA1 (human, UniProt O75019); test: ELISA
T7 construct: not the cell-surface form of MOLECULES; also called LILRA1 protein of the ELISA and Octet specificity tests

[8] = target: T8, LILRA5 on reporter cells (UniProt A6NI73 42-299); test: flow cytometry on 2B4 cells expressing the LILR, PE
T8 construct: whole, on cells

[9] = target: T1, LILRA2 on reporter cells; test: as above
[10] = target: T9, LILRB3 on reporter cells (UniProt O75022 24-631, limits assumed); test: as above
T9 construct: whole, on cells

[11] = target: T10, LILRA4 on reporter cells (UniProt P59901 24-499); test: as above
T10 construct: whole, on cells

[12] = target: T11, LILRB1 expressed on cell surface (human, UniProt Q8NHL6 24-650); test: as above
T11 construct: One entry is used for LILRB1 on reporter cells and on NK cells; also called LILRB1 NFAT-GFP reporter cell; LILRB1 reporter cells

[13] = target: T12, LILRB4 on reporter cells (UniProt Q8NHJ6 22-448); test: as above
T12 construct: whole, on cells

[14] = target: T2, LILRA1 on reporter cells; test: as above
[15] = target: T13, LILRB2 on reporter cells (UniProt Q8N423 22-597); test: as above
T13 construct: whole, on cells; The construct is not described

[16] = target: T14, LILRA6 on reporter cells (UniProt Q6PI73 24-481); test: as above
T14 construct: whole, on cells

[17] = target: T15, LILRB5 on reporter cells (UniProt O75023 24-590, limits assumed); test: as above
T15 construct: whole, on cells

[18] = target: T8, LILRA5 on reporter cells; test: flow cytometry on LILR reporter cells, 0.5 µg/mL rabbit B1-176, anti-rabbit IgG PE
[19] = target: T1, LILRA2 on reporter cells; test: as above
[20] = target: T9, LILRB3 on reporter cells; test: as above
[21] = target: T10, LILRA4 on reporter cells; test: as above
[22] = target: T11, LILRB1 expressed on cell surface; test: as above
[23] = target: T12, LILRB4 on reporter cells; test: as above
[24] = target: T2, LILRA1 on reporter cells; test: as above
[25] = target: T13, LILRB2 on reporter cells; test: as above
[26] = target: T16, LILRA3 on reporter cells (UniProt Q8N6C8 24-439); test: as above
T16 construct: whole, on cells

[27] = target: T14, LILRA6 on reporter cells; test: as above
[28] = target: T15, LILRB5 on reporter cells; test: as above

T2 sequence (O75019 17-489 limits assumed): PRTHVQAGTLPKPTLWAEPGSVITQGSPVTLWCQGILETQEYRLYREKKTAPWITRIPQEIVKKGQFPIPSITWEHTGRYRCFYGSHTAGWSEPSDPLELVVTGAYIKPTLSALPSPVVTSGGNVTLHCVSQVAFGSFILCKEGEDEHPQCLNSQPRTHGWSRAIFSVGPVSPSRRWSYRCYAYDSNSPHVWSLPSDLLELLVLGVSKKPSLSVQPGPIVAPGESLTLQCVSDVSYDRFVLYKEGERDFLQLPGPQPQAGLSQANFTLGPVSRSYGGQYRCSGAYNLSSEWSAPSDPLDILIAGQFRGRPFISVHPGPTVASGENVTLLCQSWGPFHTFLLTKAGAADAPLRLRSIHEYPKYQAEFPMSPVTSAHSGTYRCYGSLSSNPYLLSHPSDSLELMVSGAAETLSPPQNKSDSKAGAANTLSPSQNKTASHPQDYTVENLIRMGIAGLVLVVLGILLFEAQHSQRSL
T1 sequence (Q8N149 24-483): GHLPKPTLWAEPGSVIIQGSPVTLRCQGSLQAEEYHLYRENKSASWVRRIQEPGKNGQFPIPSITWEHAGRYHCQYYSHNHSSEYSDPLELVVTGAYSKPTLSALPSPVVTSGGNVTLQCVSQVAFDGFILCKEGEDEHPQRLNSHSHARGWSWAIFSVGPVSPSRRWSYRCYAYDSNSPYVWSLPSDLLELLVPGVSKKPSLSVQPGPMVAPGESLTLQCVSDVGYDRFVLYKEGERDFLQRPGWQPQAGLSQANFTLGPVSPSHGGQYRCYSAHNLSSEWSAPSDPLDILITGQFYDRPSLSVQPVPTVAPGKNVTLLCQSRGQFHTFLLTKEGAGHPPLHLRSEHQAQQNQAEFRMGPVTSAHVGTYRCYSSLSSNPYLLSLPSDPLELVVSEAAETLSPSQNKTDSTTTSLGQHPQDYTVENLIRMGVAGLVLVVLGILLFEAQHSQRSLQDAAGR
T15 sequence (O75023 24-590 limits assumed): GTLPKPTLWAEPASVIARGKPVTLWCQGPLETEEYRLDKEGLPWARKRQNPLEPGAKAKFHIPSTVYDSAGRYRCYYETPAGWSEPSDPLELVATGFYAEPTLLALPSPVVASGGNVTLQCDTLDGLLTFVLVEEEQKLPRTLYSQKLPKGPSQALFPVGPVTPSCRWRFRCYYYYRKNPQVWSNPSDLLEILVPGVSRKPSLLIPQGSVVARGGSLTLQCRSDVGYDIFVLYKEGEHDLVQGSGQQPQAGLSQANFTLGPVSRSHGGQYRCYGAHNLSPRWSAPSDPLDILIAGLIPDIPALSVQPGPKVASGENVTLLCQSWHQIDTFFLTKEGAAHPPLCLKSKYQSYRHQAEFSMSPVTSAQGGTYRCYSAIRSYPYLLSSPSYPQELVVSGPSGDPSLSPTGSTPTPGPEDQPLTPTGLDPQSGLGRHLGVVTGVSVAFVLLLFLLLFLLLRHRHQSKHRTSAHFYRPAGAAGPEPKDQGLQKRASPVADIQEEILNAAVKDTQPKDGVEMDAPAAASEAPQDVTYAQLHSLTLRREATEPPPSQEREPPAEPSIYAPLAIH
T8 sequence (A6NI73 42-299): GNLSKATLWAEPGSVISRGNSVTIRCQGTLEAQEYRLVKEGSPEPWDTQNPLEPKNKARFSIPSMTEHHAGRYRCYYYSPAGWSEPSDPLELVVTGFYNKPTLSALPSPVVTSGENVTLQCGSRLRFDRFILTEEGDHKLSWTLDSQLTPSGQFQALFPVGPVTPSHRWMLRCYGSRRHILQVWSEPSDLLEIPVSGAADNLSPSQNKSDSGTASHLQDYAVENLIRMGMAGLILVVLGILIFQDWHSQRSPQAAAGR
T13 sequence (Q8N423 22-597): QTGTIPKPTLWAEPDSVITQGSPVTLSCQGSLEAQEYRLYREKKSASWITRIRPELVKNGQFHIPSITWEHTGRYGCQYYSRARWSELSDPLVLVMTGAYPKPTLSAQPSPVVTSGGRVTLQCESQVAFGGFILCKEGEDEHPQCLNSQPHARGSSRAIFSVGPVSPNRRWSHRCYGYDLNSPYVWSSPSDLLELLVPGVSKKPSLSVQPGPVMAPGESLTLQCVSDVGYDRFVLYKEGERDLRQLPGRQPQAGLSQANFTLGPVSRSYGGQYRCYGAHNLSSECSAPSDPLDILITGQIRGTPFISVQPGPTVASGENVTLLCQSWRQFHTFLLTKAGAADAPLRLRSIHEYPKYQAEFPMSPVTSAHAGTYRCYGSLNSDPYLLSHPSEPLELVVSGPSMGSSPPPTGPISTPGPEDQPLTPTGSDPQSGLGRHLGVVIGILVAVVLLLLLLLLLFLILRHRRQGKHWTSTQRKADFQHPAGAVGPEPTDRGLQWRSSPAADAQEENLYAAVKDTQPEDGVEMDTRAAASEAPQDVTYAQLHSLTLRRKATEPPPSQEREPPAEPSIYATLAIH
T10 sequence (P59901 24-499): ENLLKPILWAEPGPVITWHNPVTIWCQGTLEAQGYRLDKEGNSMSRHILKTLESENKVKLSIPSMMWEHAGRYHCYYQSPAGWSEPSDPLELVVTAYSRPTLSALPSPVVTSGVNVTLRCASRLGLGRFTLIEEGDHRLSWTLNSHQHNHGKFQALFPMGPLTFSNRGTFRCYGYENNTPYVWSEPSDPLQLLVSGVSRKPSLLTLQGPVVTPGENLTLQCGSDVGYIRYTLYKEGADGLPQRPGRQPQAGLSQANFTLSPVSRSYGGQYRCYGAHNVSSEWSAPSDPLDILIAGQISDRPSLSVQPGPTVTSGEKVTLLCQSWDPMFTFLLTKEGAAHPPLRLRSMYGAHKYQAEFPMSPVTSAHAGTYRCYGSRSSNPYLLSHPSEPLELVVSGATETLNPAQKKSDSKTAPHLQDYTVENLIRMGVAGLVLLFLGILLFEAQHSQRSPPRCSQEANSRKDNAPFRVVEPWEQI
T14 sequence (Q6PI73 24-481): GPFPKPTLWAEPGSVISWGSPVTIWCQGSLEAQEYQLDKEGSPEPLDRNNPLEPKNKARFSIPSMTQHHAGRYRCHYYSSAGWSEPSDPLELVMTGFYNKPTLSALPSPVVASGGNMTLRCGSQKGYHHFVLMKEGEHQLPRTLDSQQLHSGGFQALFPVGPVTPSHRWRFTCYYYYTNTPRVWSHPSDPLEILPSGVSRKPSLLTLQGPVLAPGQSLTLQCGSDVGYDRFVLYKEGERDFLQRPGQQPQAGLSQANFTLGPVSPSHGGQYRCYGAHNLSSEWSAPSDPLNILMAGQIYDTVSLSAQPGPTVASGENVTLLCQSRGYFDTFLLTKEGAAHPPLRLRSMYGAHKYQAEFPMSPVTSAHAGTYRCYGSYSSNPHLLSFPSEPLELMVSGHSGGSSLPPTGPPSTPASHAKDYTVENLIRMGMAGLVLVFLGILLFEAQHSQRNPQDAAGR
T11 sequence (Q8NHL6 24-650 limits assumed): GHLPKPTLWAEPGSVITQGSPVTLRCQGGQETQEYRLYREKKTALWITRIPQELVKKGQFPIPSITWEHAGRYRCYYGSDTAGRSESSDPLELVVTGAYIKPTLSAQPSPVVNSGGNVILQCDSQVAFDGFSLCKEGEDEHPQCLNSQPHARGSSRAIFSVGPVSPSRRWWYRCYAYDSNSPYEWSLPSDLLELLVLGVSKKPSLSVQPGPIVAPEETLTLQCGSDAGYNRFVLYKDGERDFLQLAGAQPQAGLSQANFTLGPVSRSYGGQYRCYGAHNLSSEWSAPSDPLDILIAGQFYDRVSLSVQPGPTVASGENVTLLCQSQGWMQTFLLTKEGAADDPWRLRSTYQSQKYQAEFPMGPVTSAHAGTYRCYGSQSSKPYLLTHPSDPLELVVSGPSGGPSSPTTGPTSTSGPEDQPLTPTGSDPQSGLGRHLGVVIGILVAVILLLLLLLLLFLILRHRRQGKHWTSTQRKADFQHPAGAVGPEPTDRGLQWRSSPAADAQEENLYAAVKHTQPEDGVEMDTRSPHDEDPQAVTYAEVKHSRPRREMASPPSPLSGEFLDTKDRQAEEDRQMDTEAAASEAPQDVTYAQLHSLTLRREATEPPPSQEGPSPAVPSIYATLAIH
T7 sequence (O75019 17-461 limits assumed): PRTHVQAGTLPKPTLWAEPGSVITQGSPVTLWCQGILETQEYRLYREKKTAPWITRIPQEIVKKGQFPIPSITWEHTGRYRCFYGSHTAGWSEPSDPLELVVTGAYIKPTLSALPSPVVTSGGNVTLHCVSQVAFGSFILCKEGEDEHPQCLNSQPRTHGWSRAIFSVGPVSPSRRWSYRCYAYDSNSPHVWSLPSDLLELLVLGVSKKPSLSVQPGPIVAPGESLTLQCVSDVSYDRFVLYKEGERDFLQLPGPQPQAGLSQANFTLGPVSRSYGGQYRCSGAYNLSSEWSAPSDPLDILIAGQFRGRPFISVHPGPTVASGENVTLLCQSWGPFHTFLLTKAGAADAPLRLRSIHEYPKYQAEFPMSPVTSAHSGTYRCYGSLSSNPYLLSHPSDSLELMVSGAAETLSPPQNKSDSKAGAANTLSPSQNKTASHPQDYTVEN
T4 sequence (P59901 24-446 limits assumed): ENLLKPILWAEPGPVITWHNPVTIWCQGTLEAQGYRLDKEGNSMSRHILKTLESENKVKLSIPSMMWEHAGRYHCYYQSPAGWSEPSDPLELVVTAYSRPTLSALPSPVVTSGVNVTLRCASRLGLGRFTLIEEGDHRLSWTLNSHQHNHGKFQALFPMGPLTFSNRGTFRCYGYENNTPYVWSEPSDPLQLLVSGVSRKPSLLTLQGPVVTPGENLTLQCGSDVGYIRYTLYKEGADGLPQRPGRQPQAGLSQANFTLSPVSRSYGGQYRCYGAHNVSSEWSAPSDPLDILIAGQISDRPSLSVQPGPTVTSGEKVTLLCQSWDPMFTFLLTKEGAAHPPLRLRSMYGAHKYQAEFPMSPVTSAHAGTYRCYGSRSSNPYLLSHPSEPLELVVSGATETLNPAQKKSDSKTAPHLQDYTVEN

binding result [1]: no binding (tested: 0.5 µg/mL) | binding result [2]: no binding (tested: 0.5 µg/mL) | Kd [3]: < 0.01 nM | percent of cells in the gate [8]: 0.101% | percent of cells in the gate [9]: 0.11% | percent of cells in the gate [10]: 0.0698% | percent of cells in the gate [11]: 0.0736% | percent of cells in the gate [12]: 99.2% | percent of cells in the gate [13]: 0.181% | percent of cells in the gate [14]: 0.124% | percent of cells in the gate [15]: 0.676% | percent of cells in the gate [16]: 0.123% | percent of cells in the gate [17]: 0.29% | percent of cells in the gate [18]: 0.1% | percent of cells in the gate [19]: 0.11% | percent of cells in the gate [20]: 0.07% | percent of cells in the gate [21]: 0.074% | percent of cells in the gate [22]: 99% | percent of cells in the gate [23]: 0.18% | percent of cells in the gate [24]: 0.12% | percent of cells in the gate [25]: 0.68% | percent of cells in the gate [26]: 0.1% | percent of cells in the gate [27]: 0.12% | percent of cells in the gate [28]: 0.29%
B1: B1-176 rabbit antibody (antibody, V domains shown)
VH: QSLEESEGGLVKPGGTLTLTCTASGFSFSSSYCMCWVRQAPGKGLELIACIYTDSSGATYYASWAKGRFTISKSSSTTITLQMTSLTAADTATYFCARGWDYEDPGYTDTTYFSLWGPGTLVTVSS
VL: ELDLTQTPSSVEAAVGGTVTIKCQASQTIYTNLAWYQQKPGQPPNLLIYAASTLASGVSSRFKGSGSGTEFTLTISDLECADAATYYCQSYYGSSTTGNGFGGGTEVEIK
notes: Full-length rabbit IgG, kappa; Variable genes were cloned into a rabbit IgG expression vector and expressed in Expi293F cells
binding result [4]: no binding (tested: 10^3.0 ng/mL (1000 ng/mL)) | binding result [5]: no binding (tested: 10^3.0 ng/mL (1000 ng/mL)) | binding result [6]: no binding (tested: 10^3.0 ng/mL (1000 ng/mL)) | binding result [7]: no binding (tested: 10^3.0 ng/mL (1000 ng/mL))
